Laboratory results as given in US20210388087A1 (Chugai, published 2021).
Where a chain is given by its changes, count along the chain named. Names and notes keep the numbering of the source.

B1: H183/L072 VL Y32N (antibody, name in Kabat numbering, V domains shown)
VH: QVQLVESGGGLVQPGRSLRLSCAASGFTFSNAWMHWVRQAPGKGLEWVAQIKDKGNAYAAYYAPSVKGRFTISRDDSKNSIYLQMNSLKTEDTAVYYCHYVHYASASTVLPAFGVDAWGQGTTVTVSS
VL: DIVMTQSPLSLPVTPGEPASISCQASQELVHMNRNTNLHWYQQKPGQAPRLLIYKVSNRFPGVPDRFSGSGSGTDFTLKISRVEAEDVGVYYCAQGTSVPFTFGQGTKLEIK
B2: H183/L072 VL Y32K (antibody, name in Kabat numbering, V domains shown)
VH: B1 VH
VL: B1 VL with N37K
B3: H183/L072 VL Y32G (antibody, name in Kabat numbering, V domains shown)
VH: B1 VH
VL: B1 VL with N37G
B4: H183/L072 VL Y32T (antibody, name in Kabat numbering, V domains shown)
VH: B1 VH
VL: B1 VL with N37T
B5: H183/L072 VL Y32Q (antibody, name in Kabat numbering, V domains shown)
VH: B1 VH
VL: B1 VL with N37Q
B6: H183/L072 VL Y32S (antibody, name in Kabat numbering, V domains shown)
VH: B1 VH
VL: B1 VL with N37S
B7: H183/L072 VL Y32H (antibody, name in Kabat numbering, V domains shown)
VH: B1 VH
VL: B1 VL with N37H
B8: H183/L072 VL Y32L (antibody, name in Kabat numbering, V domains shown)
VH: B1 VH
VL: B1 VL with N37L
B9: H183/L072 VH F27A (antibody, name in Kabat numbering, V domains shown)
VH: B1 VH with F27A
VL: B1 VL with N37Y
B10: H183/L072 VH A32Q (antibody, name in Kabat numbering, V domains shown)
VH: B1 VH with A32Q
VL: B1 VL with N37Y
B11: H183/L072 VH A32R (antibody, name in Kabat numbering, V domains shown)
VH: B1 VH with A32R
VL: B1 VL with N37Y
B12: H183/L072 VH A32S (antibody, name in Kabat numbering, V domains shown)
VH: B1 VH with A32S
VL: B1 VL with N37Y
B13: H183/L072 VH A54T (antibody, name in Kabat numbering, V domains shown)
VH: B1 VH with A57T
VL: B1 VL with N37Y
B14: H183/L072 VH A54Y (antibody, name in Kabat numbering, V domains shown)
VH: B1 VH with A57Y
VL: B1 VL with N37Y
B15: H183/L072 VH A32L (antibody, name in Kabat numbering, V domains shown)
VH: B1 VH with A32L
VL: B1 VL with N37Y
B16: H183/L072 VH A56D (antibody, name in Kabat numbering, V domains shown)
VH: B1 VH with A59D
VL: B1 VL with N37Y
B17: H183/L072 VH A32N (antibody, name in Kabat numbering, V domains shown)
VH: B1 VH with A32N
VL: B1 VL with N37Y
B18: H183/L072 VH A54I (antibody, name in Kabat numbering, V domains shown)
VH: B1 VH with A57I
VL: B1 VL with N37Y
B19: H183/L072 VH A54Q (antibody, name in Kabat numbering, V domains shown)
VH: B1 VH with A57Q
VL: B1 VL with N37Y
B20: H183/L072 VH A32M (antibody, name in Kabat numbering, V domains shown)
VH: B1 VH with A32M
VL: B1 VL with N37Y
B21: H183/L072 VH A32Y (antibody, name in Kabat numbering, V domains shown)
VH: B1 VH with A32Y
VL: B1 VL with N37Y
B22: H183/L072 VH A32K (antibody, name in Kabat numbering, V domains shown)
VH: B1 VH with A32K
VL: B1 VL with N37Y
B23: H183/L072 VH A32I (antibody, name in Kabat numbering, V domains shown)
VH: B1 VH with A32I
VL: B1 VL with N37Y
B24: H183/L072 VH A54S (antibody, name in Kabat numbering, V domains shown)
VH: B1 VH with A57S
VL: B1 VL with N37Y
B25: H183/L072 VH A32G (antibody, name in Kabat numbering, V domains shown)
VH: B1 VH with A32G
VL: B1 VL with N37Y
B26: H183/L072 VH A32E (antibody, name in Kabat numbering, V domains shown)
VH: B1 VH with A32E
VL: B1 VL with N37Y
B27: H183/L072 VH A54N (antibody, name in Kabat numbering, V domains shown)
VH: B1 VH with A57N
VL: B1 VL with N37Y
B28: H183/L072 VH A32T (antibody, name in Kabat numbering, V domains shown)
VH: B1 VH with A32T
VL: B1 VL with N37Y
B29: H183/L072 VH A54K (antibody, name in Kabat numbering, V domains shown)
VH: B1 VH with A57K
VL: B1 VL with N37Y
B30: H183/L072 VH A54R (antibody, name in Kabat numbering, V domains shown)
VH: B1 VH with A57R
VL: B1 VL with N37Y
B31: H183/L072 VH A54E (antibody, name in Kabat numbering, V domains shown)
VH: B1 VH with A57E
VL: B1 VL with N37Y
B32: H183/L072 VH A54W (antibody, name in Kabat numbering, V domains shown)
VH: B1 VH with A57W
VL: B1 VL with N37Y
B33: H183/L072 VH A32F (antibody, name in Kabat numbering, V domains shown)
VH: B1 VH with A32F
VL: B1 VL with N37Y
B34: H183/L072 VH A54H (antibody, name in Kabat numbering, V domains shown)
VH: B1 VH with A57H
VL: B1 VL with N37Y
B35: H183/L072 VH A32H (antibody, name in Kabat numbering, V domains shown)
VH: B1 VH with A32H
VL: B1 VL with N37Y
B36: H183/L072 VH A54F (antibody, name in Kabat numbering, V domains shown)
VH: B1 VH with A57F
VL: B1 VL with N37Y
B37: H183/L072 VH A54V (antibody, name in Kabat numbering, V domains shown)
VH: B1 VH with A57V
VL: B1 VL with N37Y
B38: H183/L072 VH A56E (antibody, name in Kabat numbering, V domains shown)
VH: B1 VH with A59E
VL: B1 VL with N37Y
B39: H183/L072 VH A32V (antibody, name in Kabat numbering, V domains shown)
VH: B1 VH with A32V
VL: B1 VL with N37Y
B40: H183/L072 VH A54L (antibody, name in Kabat numbering, V domains shown)
VH: B1 VH with A57L
VL: B1 VL with N37Y
B41: H183/L072 VH A54D (antibody, name in Kabat numbering, V domains shown)
VH: B1 VH with A57D
VL: B1 VL with N37Y
B42: H183/L072 VH A54M (antibody, name in Kabat numbering, V domains shown)
VH: B1 VH with A57M
VL: B1 VL with N37Y

Target: T1, Human CD3eg linker (human)
T1 construct: Single-chain construct; also called recombinant human CD3
T1 chain: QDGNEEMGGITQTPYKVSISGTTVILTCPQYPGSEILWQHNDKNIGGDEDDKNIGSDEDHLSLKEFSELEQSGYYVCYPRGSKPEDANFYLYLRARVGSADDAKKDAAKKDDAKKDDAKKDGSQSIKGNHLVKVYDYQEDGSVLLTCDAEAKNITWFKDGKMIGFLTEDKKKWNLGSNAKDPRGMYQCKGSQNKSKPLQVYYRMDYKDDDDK
Experiment: SPR; fold vs parent H183/L072

B1 and B2 are the same in “fold change of affinity” value: 0 fold for the first, 0 fold for the second.

B3 and B4 are the same in “fold change of affinity” value: 0 fold for the first, 0 fold for the second.

B5 and B6 are the same in “fold change of affinity” value: 0 fold for the first, 0 fold for the second.

B7 and B8 are the same in “fold change of affinity” value: 0 fold for the first, 0 fold for the second.

Target: T2, Human CD137 ECD (human)
T2 construct: also called 4-1BB
T2 sequence (chain, as listed by the source limits assumed): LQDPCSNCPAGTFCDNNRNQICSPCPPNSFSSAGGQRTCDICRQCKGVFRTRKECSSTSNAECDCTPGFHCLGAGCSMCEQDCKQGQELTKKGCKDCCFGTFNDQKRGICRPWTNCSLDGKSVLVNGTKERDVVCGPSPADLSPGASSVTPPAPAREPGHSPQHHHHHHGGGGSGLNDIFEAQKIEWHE
Experiment: single mutant vs template dBBDu183H

Going from B9 to B10, the “fold change of affinity” value rises from 0.3 fold to 1.6 fold.

Going from B11 to B12, the “fold change of affinity” value rises from 0.3 fold to 0.9 fold.

First: B13
Second: B14
The “fold change of affinity” value of the first is lower: 0.3 fold for the first, 0.9 fold for the second.

First: B15
Second: B16
The “fold change of affinity” value of the first is higher: 1.2 fold for the first, 0.3 fold for the second.

Going from B17 to B18, the “fold change of affinity” value rises from 0.3 fold to 0.5 fold.

Compared with B19, B20 is higher in “fold change of affinity” value: 1 fold for the first, 1.6 fold for the second.

Going from B21 to B22, the “fold change of affinity” value rises from 0 fold to 1 fold.

Going from B23 to B24, the “fold change of affinity” value falls from 2.2 fold to 0.9 fold.

Going from B25 to B26, the “fold change of affinity” value rises from 0.1 fold to 0.4 fold.

First: B27
Second: B28
The “fold change of affinity” value of the first is lower: 1.1 fold for the first, 3.9 fold for the second.

B29 and B30 are the same in “fold change of affinity” value: 0.9 fold for the first, 0.9 fold for the second.

Compared with B31, B32 is lower in “fold change of affinity” value: 1 fold for the first, 0.8 fold for the second.

First: B33
Second: B34
The “fold change of affinity” value of the first is lower: 0.1 fold for the first, 1 fold for the second.

Compared with B35, B36 is higher in “fold change of affinity” value: 0.2 fold for the first, 0.9 fold for the second.

B37 and B38 are the same in “fold change of affinity” value: 0.5 fold for the first, 0.5 fold for the second.

Going from B39 to B40, the “fold change of affinity” value falls from 3.7 fold to 1 fold.

First: B41
Second: B42
The “fold change of affinity” value of the first is higher: 1.1 fold for the first, 1 fold for the second.
